In publication PMC2291563, “SAM Domain-Based Protein Oligomerization Observed by Live-Cell Fluorescence Fluctuation Spectroscopy” (PLoS ONE, 2008):

T1: Ste50-mCherry (budding yeast (S288C background), UniProt P25344 1-346)
T1 construct: Ste50, SAM domain protein, budding yeast; tagged at the chromosomal locus; source: expressed from its chromosomal locus in live yeast cells (S288C background); not shown: mCherry, C-terminal, kept
T1 sequence (looked up): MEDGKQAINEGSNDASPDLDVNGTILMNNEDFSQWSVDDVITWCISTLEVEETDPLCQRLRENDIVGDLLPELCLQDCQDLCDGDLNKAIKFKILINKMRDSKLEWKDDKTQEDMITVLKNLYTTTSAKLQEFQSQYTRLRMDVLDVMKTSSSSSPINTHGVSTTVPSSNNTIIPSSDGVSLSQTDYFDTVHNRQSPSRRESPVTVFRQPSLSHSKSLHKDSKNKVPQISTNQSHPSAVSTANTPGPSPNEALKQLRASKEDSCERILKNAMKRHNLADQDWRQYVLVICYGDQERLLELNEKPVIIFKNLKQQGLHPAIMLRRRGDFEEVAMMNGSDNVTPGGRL


Legend:
[1] = target: the molecule itself; experiment: photon counting histogram (1dPCH), constrained two-component fit; live yeast cells, cycling; monomer brightness fixed, oligomer brightness and numbers freely varied; subunits estimated from a linear extrapolation of GFP brightness
[2] = target: the molecule itself; experiment: photon counting histogram (1dPCH), constrained two-component fit; live yeast cells at high salt (NaCl); monomer brightness fixed, oligomer brightness and numbers freely varied; subunits estimated from a linear extrapolation of GFP brightness
[3] = target: the molecule itself; experiment: photon counting histogram (1dPCH), constrained two-component fit; live yeast cells treated with α-factor; monomer brightness fixed, oligomer brightness and numbers freely varied; subunits estimated from a linear extrapolation of GFP brightness
Ste50-mCherry = target: T1, Ste50-mCherry; experiment: two-dimensional photon counting histogram (2dPCH); live yeast cells with Ste11-GFP and Ste50-mCherry, cytosolic pool; 50 µs bins; two-component fit; cycling cells, also after α-factor or NaCl; settings: partners not purified

Row | stoichiometry N (Ste50-mCherry) [Ste11 per Ste50] | Binder | stoichiometry N [1] | stoichiometry N [2] | stoichiometry N [3]
1 | – | Ste50-GFP (natural protein, budding yeast (S288C background), UniProt P25344 1-346, looked up, Ste50, SAM domain protein, budding yeast; tagged at the chromosomal locus; source: expressed from its chromosomal locus in live yeast cells (S288C background); not shown: GFP, C-terminal, kept) MEDGKQAINEGSNDASPDLDVNGTILMNNEDFSQWSVDDVITWCISTLEVEETDPLCQRLRENDIVGDLLPELCLQDCQDLCDGDLNKAIKFKILINKMRDSKLEWKDDKTQEDMITVLKNLYTTTSAKLQEFQSQYTRLRMDVLDVMKTSSSSSPINTHGVSTTVPSSNNTIIPSSDGVSLSQTDYFDTVHNRQSPSRRESPVTVFRQPSLSHSKSLHKDSKNKVPQISTNQSHPSAVSTANTPGPSPNEALKQLRASKEDSCERILKNAMKRHNLADQDWRQYVLVICYGDQERLLELNEKPVIIFKNLKQQGLHPAIMLRRRGDFEEVAMMNGSDNVTPGGRL | 5 to 6 | 3 to 4 | ~4
2 | 2 | Ste11-GFP (natural protein, budding yeast (S288C background), UniProt P23561 1-717, looked up, Ste11, MAP kinase kinase kinase with a SAM domain, budding yeast; tagged at the chromosomal locus; source: expressed from its chromosomal locus in live yeast cells (S288C background); not shown: GFP, C-terminal, kept) MEQTQTAEGTDLLIGDEKTNDLPFVQLFLEEIGCTQYLDSFIQCNLVTEEEIKYLDKDILIALGVNKIGDRLKILRKSKSFQRDKRIEQVNRLKNLMEKVSSLSTATLSMNSELIPEKHCVIFILNDGSAKKVNVNGCFNADSIKKRLIRRLPHELLATNSNGEVTKMVQDYDVFVLDYTKNVLHLLYDVELVTICHANDRVEKNRLIFVSKDQTPSDKAISTSKKLYLRTLSALSQVGPSSSNLLAQNKGISHNNAEGKLRIDNTEKDRIRQIFNQRPPSEFISTNLAGYFPHTDMKRLQKTMRESFRHSARLSIAQRRPLSAESNNIGDILLKHSNAVDMALLQGLDQTRLSSKLDTTKIPKLAHKRPEDNDAISNQLELLSVESGEEEDHDFFGEDSDIVSLPTKIATPKNWLKGACIGSGSFGSVYLGMNAHTGELMAVKQVEIKNNNIGVPTDNNKQANSDENNEQEEQQEKIEDVGAVSHPKTNQNIHRKMVDALQHEMNLLKELHHENIVTYYGASQEGGNLNIFLEYVPGGSVSSMLNNYGPFEESLITNFTRQILIGVAYLHKKNIIHRDIKGANILIDIKGCVKITDFGISKKLSPLNKKQNKRASLQGSVFWMSPEVVKQTATTAKADIWSTGCVVIEMFTGKHPFPDFSQMQAIFKIGTNTTPEIPSWATSEGKNFLRKAFELDYQYRPSALELLQHPWLDAHII | – | – | –
